Laboratory results: PMC10834429, “HRDE-2 drives small RNA specificity for the nuclear Argonaute protein HRDE-1” (Nature Communications, 2024)

Assays:
GFP::3xFLAG::HRDE-1 = target: T1, GFP::3xFLAG::HRDE-1 (C. elegans, UniProt Q09249 1-1032); test: co-IP; lysate of adult animals; anti-FLAG beads precipitate GFP::3xFLAG::HRDE-1, HRDE-2::2xTy1::GFP detected with anti-Ty1; wild-type, mut-2 mutant and hrde-1(HK-AA) backgrounds; band intensities by ImageJ normalized to HRDE-1 immunoprecipitated and to wild-type; conditions: partners not purified
T1 construct: HRDE-1/WAGO-9, germline nuclear Argonaute, C. elegans, tagged in the worm strain; Tag ends are read from the strain notation GFP::3xFLAG::HRDE-1; also called HRDE-1/WAGO-9; wild-type HRDE-1; source: C. elegans strain hrde-1(tor125[GFP::3xFLAG::hrde-1]), adult animals, in lysate; not shown: GFP, N-terminal, kept; 3xFLAG, N-terminal, kept
T1 sequence (looked up): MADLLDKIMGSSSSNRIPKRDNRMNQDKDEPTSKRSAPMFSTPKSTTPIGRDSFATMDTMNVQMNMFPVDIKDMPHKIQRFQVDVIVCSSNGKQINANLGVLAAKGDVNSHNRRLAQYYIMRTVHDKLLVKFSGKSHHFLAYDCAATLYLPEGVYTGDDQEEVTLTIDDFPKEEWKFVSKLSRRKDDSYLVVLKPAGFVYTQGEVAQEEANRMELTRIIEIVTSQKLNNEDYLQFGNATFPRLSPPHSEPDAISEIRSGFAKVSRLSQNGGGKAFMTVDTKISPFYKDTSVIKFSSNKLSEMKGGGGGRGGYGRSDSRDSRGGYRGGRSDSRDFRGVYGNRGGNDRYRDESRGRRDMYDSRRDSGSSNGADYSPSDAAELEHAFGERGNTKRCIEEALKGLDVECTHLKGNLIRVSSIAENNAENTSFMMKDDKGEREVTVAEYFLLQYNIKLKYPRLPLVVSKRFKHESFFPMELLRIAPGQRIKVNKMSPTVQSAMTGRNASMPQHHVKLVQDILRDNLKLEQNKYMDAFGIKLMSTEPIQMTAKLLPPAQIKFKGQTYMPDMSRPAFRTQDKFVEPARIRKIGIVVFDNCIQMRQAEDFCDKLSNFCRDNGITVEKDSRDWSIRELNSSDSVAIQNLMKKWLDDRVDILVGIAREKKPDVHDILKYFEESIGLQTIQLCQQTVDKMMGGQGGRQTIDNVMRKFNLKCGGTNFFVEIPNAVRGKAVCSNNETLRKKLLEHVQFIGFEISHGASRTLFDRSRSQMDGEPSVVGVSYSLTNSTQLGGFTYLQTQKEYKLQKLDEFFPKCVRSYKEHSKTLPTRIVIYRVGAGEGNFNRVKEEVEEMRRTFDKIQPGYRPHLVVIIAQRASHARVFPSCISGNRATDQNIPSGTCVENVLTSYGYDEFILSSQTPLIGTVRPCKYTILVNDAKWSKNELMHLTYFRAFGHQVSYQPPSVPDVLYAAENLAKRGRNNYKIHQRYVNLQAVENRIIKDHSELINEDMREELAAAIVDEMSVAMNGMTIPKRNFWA

[1] = target: T2, GFP::3xFLAG::HRDE-1(HK-AA) (C. elegans, UniProt Q09249 1-1032, H664A | K668A); test: as above; conditions: partners not purified
T2 construct: Tag ends are read from the strain notation; Repair template is in Supplementary Data 3; source: C. elegans strain hrde-1(cmp309[HK-AA]) made in hrde-1(tor125[GFP::3xFLAG::hrde-1]), adult animals, in lysate; not shown: GFP, N-terminal, kept; 3xFLAG, N-terminal, kept
T2 sequence (looked up): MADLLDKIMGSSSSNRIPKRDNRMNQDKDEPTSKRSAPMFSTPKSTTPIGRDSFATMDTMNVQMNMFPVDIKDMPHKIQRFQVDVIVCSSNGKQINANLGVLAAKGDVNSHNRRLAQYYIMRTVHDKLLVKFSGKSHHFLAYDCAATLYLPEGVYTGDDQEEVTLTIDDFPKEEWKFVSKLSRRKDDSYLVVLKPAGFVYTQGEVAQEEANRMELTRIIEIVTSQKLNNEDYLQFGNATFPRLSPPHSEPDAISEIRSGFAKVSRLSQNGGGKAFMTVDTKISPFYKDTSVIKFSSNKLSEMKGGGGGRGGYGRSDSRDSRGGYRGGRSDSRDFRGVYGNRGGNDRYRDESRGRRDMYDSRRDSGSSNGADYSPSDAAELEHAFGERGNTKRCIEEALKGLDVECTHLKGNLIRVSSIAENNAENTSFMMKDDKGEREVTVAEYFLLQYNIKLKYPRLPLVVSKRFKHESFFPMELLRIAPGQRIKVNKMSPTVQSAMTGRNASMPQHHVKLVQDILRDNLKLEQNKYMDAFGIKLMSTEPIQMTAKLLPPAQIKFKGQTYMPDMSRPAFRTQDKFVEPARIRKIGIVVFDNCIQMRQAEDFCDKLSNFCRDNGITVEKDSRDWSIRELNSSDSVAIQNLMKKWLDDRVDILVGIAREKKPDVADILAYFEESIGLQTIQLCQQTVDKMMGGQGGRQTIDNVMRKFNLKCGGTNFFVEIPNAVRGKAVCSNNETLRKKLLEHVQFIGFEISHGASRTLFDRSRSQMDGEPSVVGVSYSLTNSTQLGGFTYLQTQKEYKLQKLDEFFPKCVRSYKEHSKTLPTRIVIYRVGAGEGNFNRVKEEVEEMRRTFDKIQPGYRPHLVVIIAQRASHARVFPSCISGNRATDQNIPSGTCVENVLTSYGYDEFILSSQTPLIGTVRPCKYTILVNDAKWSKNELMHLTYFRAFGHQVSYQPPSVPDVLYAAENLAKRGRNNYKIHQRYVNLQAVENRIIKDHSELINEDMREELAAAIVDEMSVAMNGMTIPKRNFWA

B1: HRDE-2::2xTy1::GFP (natural protein, C. elegans, UniProt Q22058 1-305, looked up)
chain: MSQNSDTFDSGLQMEVHKMAEADNSSVQQKFDAIRDYIGRKETTIILCEHDDSRKIKLTLNKQRMESSMFLTEMPDGGIQEKTKFHRNGLAVCSYNAFDEVDLPLADSYIFYGLPSNVEAFPRMLHGIEKSAHKENKIVFIDIVVSILEKIQIKVVSFELYNRKCTVPTWVAELVITYCAPIEEQQQRIEEIRRTRASVPVAISDAANGSAEMVPSNTTGSSGSPMSTAPVPAAKKEKVQYESIRQIRPNAQGRYFVPARMINMDIEMSNDEYSPDESENDENEYDYENAARYDDGYDEGHEYCQ
notes: HRDE-2 (HRDE-2/ENRI-3), C. elegans, tagged in the worm strain; Tag ends are read from the strain notation HRDE-2::2xTy1::GFP; also called HRDE-2/ENRI-3; source: C. elegans strain hrde-2/enri-3(tag1660[hrde-2/enri-3::2xTy1::GFP]), adult animals, in lysate; not shown: 2xTy1, C-terminal, kept; GFP, C-terminal, kept
fold change of co-precipitated HRDE-2 in the mut-2 mutant against wild-type (GFP::3xFLAG::HRDE-1): ~2.18 fold
fold change of co-precipitated HRDE-2 against wild-type HRDE-1 [1]: ~3.3 fold
